Reference: paper PMC3795252, “SLP-76 Sterile α Motif (SAM) and Individual H5 α Helix Mediate Oligomer Formation for Microclusters and T-cell Activation*” (The Journal of Biological Chemistry, 2013)
Where “and” joins values, the source holds several entries; their conditions need not be identical. Identical values can stand only once.

How the values were obtained:
[1] = molecular target: the molecule itself; experiment: dynamic light scattering; purified SAM domain at rising concentrations; 25 °C; DynaPro; hydrodynamic radius compared with radii estimated by HYDROPRO and GRAMM-X for monomer, dimer and tetramer; dimer from 10–20 μM, tetramer >50 μM
[2] = molecular target: the molecule itself; experiment: MST; 10 nM NT-647-labelled protein titrated with the same protein unlabelled (0–90.5 μM, 1:1 dilutions); Monolith NT.115; 25 °C; 10 mM HEPES pH 7.5, 500 mM NaCl, 0.5 mM TCEP, 0.05% Tween 20; constant is of monomer to dimer

B1: SLP-76 SAM domain (residues 1–78), recombinant, His-tagged (domain or fragment, human, UniProt Q13094 1-78, looked up)
chain: MALRNVPFRSEVLGWDPDSLADYFKKLNYKDCEKAVKKYHIDGARFLNLTENDIQKFPKLRVPILSKLSQEINKNEER
modifications: NT-647 dye coupled to primary amines on the labelled copy used in MST (one label per protein molecule); the titrated copy is unlabelled
notes: SLP-76 (LCP2), human, N-terminal sterile alpha motif (SAM) domain, residues 1-78 (helices H1-H5); Cloned into the NdeI/BamHI sites of pET-20b(+); also called SLP-76 N-terminal SAM domain; H1–5; source: E. coli BL21(DE3), pET-20b(+), soluble fraction purified by Ni2+ column
- stoichiometry N [1]: 2 and 4
- Kd [2]: 2500 ± 900 nM
